How the values were obtained:
[1] = target: MBP-tagged HzTransib transposase (Transib transposase from Helicoverpa zea), residues 17-507 (Helicoverpa zea); assay: SEC-MALS
[2] = target: His6-tagged HzTransib transposase (Transib transposase from Helicoverpa zea), residues 17-507 (Helicoverpa zea); assay: SEC-MALS

Row | Substance | stoichiometry N [1] | stoichiometry N [2]
1 | MBP-tagged HzTransib transposase (Transib transposase from Helicoverpa zea), residues 17-507 (enzyme) | 2 | 
2 | His6-tagged HzTransib transposase (Transib transposase from Helicoverpa zea), residues 17-507 (enzyme) |  | 2

— paper PMC6872938
